The text below walks through data of paper PMC7755189, “Phosphorylation of seryl-tRNA synthetase by ATM/ATR is essential for hypoxia-induced angiogenesis”.

The data set deals with SerRS AA (Homo sapiens, UniProt P49591 1-514, S101A;S241A). Briefly: EMSA; not attenuated relative to WT; EMSA: 20 mM Tris-HCl pH 8.0, 60 mM KCl, 5 mM MgCl2, 0.1 mg/mL BSA, 10 ng/uL poly(dG-dC), 1 mM DTT, 30 min, room temperature; 0.08 pmol labeled DNA; 5% native PAGE. Conditions: protein: recombinant; tags: C-terminal His6; chain copies: 2; label: 5'-32P; annealed oligonucleotides. (A gel shift assay detects complexes by their altered migration in electrophoresis.)
Chain of SerRS AA (P49591 whole entry S101A/S241A): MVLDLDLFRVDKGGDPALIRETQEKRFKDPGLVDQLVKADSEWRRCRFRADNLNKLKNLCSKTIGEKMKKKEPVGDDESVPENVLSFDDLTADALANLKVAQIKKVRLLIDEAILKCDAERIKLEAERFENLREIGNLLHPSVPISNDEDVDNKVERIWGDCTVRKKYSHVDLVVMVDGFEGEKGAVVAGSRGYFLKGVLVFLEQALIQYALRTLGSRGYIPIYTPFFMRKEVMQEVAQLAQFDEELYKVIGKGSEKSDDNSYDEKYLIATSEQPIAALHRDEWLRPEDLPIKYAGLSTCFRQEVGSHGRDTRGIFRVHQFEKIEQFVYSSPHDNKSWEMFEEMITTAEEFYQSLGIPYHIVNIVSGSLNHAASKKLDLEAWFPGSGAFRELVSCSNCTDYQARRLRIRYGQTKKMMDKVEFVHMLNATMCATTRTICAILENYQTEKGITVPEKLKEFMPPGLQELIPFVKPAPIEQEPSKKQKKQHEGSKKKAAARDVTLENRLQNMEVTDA

B1: VEGFA promoter SerRS binding site 27 bp (dsDNA)
DNA 1: GGCGGGGCGGAGCCATGCGCCCCCCCC
DNA 2: GGGGGGGGCGCATGGCTCCGCCCCGCC
Regarding B1, the binding result is “binds”.
